Measurements: patent publication US20090317428A1

Molecular target: HLA-DR molecules of the human B-lymphoblastoid cell line Awells (HLA-DRB1*0401, HLA-DRB4*0101) (human)
Assay: cell-based or functional assay

inhibition of T-helper cell line activation by Awells-Ii-cyclin D1 transfectants: 71.2%
B1: L243 (anti-HLA-DR) (antibody, from another filing, V domains shown)
VH: QIQLVQSGPELKKPGETVKISCKASGFTFTNYGMNWVKQAPGKGLKWMGWINTYTREPTYADDFKGRFAFSLETSASTAYLQINNLKNEDTAKYFCARDITAVVPTGFDYWGQGTTLTVSS
VL: DIQMTQSPASLSVSVGETVTITCRASENIYSNLAWYRQKQGKSPQLLVFAASNLADGVPSRFSGSGSGTQYSLKINSLQSEDFGDYYCQHFWTTPWAFGGGTNLEIKR
